Measured values reported in patent publication US7033991 (dated 2006).

Molecular target: Furin (literature) (UniProt P09958)
Sequence (P09958 108-715): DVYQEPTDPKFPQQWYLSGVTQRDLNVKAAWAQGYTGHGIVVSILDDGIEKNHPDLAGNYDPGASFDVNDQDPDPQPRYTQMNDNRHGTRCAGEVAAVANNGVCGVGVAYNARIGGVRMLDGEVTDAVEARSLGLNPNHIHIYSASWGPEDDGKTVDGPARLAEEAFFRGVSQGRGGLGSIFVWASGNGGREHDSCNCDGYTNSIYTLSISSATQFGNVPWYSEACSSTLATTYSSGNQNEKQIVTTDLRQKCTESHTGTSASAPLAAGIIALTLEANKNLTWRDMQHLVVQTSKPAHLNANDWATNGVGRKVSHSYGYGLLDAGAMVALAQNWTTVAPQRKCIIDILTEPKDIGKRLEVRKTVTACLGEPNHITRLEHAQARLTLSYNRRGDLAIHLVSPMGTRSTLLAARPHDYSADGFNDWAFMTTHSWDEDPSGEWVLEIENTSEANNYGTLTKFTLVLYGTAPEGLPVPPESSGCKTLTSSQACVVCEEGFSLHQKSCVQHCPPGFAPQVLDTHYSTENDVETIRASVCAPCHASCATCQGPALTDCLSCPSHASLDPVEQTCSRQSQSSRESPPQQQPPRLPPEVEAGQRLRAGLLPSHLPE

B1: Proteinase inhibitor 8 (PI8) (protein)
chain: MDDLCEANGTFAISLFKILGEEDNSRNVFFSPMSISSALAMVFMGAKGSTAAQMSQALCLYKDGDIHRGFQSLLSEVNRTGTQYLLRTANRLFGEKTCDFLPDFKEYCQKFYQAELEELSFAEDTEECRKHINDWVAEKTEGKISEVLDAGTVDPLTKLVLVNAIYFKGKWNEQFDRKYTRGMLFKTNEEKKTVQMMFKEAKFKMGYADEVHTQVLELPYVEEELSMVILLPDDNTDLAVVEKALTYEKFKAWTNSEKLTKSKVQVFLPRLKLEESYDLEPFLRRLGMIDAFDEAKADFSGMSTEKNVPLSKVAHKCFVEVNEEGTEAAAATAVVRNSRCSRMEPRFCADHPFLFFIRHHKTNCILFCGRFSSP
Ki: 0.0538 nM
